Experimental data published in the supplement of paper PMC9170038.

System: MS2 coat protein
Test: apparent KD of MS2 coat protein; designed switch direction (-1 OFF switch, 1 ON switch): 1; higher = weaker reporter binding
Summary of the method: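 Each step of the titration lasted 0.8–1.5 h at the lowest concentration and 10–20 min at the highest. The protein, SNAP-549-labelled MS2 coat protein, went from 0.7 or 1.5 nM doubling to 3 µM over RNA switches transcribed on Illumina chips by stalled E. coli RNA polymerase. Normalised cluster fluorescence was curve-fitted, and the per-design median over clusters is given as apparent KD.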

[1] = input ligand: microRNA oligo, concentration not stated

With “UUAAUGAUGUAAGGAUAUACAUGAGGAUUUCUCGUAGAAGGUACAGGACAUGAGGAUCACCCAUGUAUCGCUCCGUAGAGCGUA [JL SSNG1 1.11] (Eterna round: R96, puzzle: Same State NG 1)” the “apparent KD of MS2 coat protein” value (input ligand: FMN 200 uM) was 136 nM, the “apparent KD of MS2 coat protein” value [1] was 292 nM and the “apparent KD of MS2 coat protein” value (input ligand: none) was 356 nM.
For “UUAAUUAAUUAAUUAUACAUGAGGAUCACCCAUGUAAGUGAUCAGGAUAUCAGCUCGAUUAGAGCUGAGAAGGGAUACAUGUAA [SSNG3/13-A2] (Eterna round: R96, puzzle: Same State NG 3)”, the “apparent KD of MS2 coat protein” value (input ligand: FMN 200 uM) was 142 nM, the “apparent KD of MS2 coat protein” value [1] was 164 nM and the “apparent KD of MS2 coat protein” value (input ligand: none) was 191 nM.
In the case of “UUACUCAUGUAAGGAUAUGCAGCCGAAACGGCUGCAGAAGGUACUAUAAUACAUGAGGAUCACCCAUGUCUUUUUAAUUUUUAC [Mat - Same State NG 1 - JL mod - D70] (Eterna round: R96, puzzle: Same State NG 1)”, the “apparent KD of MS2 coat protein” value (input ligand: FMN 200 uM) is reported as 47.5 nM, the “apparent KD of MS2 coat protein” value [1] is reported as 37 nM and the “apparent KD of MS2 coat protein” value (input ligand: none) is reported as 44.1 nM.
In the case of “UUAGAAUUGCAAGGAUAUCUAAUUUAGAUAGUAAGAGAAGGUGCUUUAUAGUUACAUGAGGAUCACCCAUGUUUUUUUUUUUAU [JR_SSNG1_Sub060] (Eterna round: R96, puzzle: Same State NG 1)”, the “apparent KD of MS2 coat protein” value (input ligand: FMN 200 uM) is reported as 42.3 nM, the “apparent KD of MS2 coat protein” value [1] is reported as 36.3 nM and the “apparent KD of MS2 coat protein” value (input ligand: none) is reported as 49.9 nM.
With “UUAGAAUUGCAAGGAUAUCUUAUUUAGAUAGUAAGAGAAGGUGCUUUAUAGUUACAUGAGGAUCACCCAUGUAUUUCUUUUUAU [JR_SSNG1_Sub061] (Eterna round: R96, puzzle: Same State NG 1)” the “apparent KD of MS2 coat protein” value [1] was 16.6 nM.
With “UUAGUCAUGUAAGGAUAUGCAGCCGAAACGGCUGCAGAAGGUACUAUAAUUACAUGAGGAUCACCCAUGUUAUAAAAUUUAUAU [Mat - Same State NG 1 - JL mod - D62] (Eterna round: R96, puzzle: Same State NG 1)” the “apparent KD of MS2 coat protein” value (input ligand: FMN 200 uM) was 23.4 nM, the “apparent KD of MS2 coat protein” value [1] was 28.7 nM and the “apparent KD of MS2 coat protein” value (input ligand: none) was 41.2 nM.
With “UUAUCACAUGAGGAUCACCCAUGUUAUACUUUUUUAGGAUAUUUUAUGUAUGACCAAAUAAAAGAAGGAGGAAUAA [flagellum_key_01] (puzzle: Same State 1)” the “apparent KD of MS2 coat protein” value (Eterna round: R95, input ligand: FMN 200 uM) was 31.2 nM, the “apparent KD of MS2 coat protein” value (Eterna round: R95, input ligand: microRNA oligo, concentration not stated) was 44.4 nM and the “apparent KD of MS2 coat protein” value (Eterna round: R95, input ligand: none) was 47 nM.
With “UUCACCUUUUUUUACAUGAGGAUCACCCAUGUUUUCCCUACGUAGGAUAUCGAUGCUUGAUUGUUCGAGAAGGACGUUGUAAGU [JR_SSND3_Sub056] (Eterna round: R96, puzzle: Same State NG 3)” the “apparent KD of MS2 coat protein” value (input ligand: FMN 200 uM) was 29.6 nM, the “apparent KD of MS2 coat protein” value [1] was 20.7 nM and the “apparent KD of MS2 coat protein” value (input ligand: none) was 33.7 nM.
With “UUCACCUUUUUUUACAUGAGGAUCACCCAUGUUUUUUUUACGUAGGAUAUCGAUGCUUGUUUUUUCGAGAAGGACGAUGUAAGU [JR_SSND3_Sub052] (Eterna round: R96, puzzle: Same State NG 3)” the “apparent KD of MS2 coat protein” value (input ligand: FMN 200 uM) was 16.7 nM, the “apparent KD of MS2 coat protein” value [1] was 12.2 nM and the “apparent KD of MS2 coat protein” value (input ligand: none) was 18.2 nM.
With “UUGAAGAAUUAAGGAUAUUGAAUACAUAUGUUUAACAUGAGGAUCACCCAUGUGGGUUGCGGUAUCGAGAAGGUAAAUUACUAG [JL SSNG2 1.49] (Eterna round: R96, puzzle: Same State NG 2)” the “apparent KD of MS2 coat protein” value (input ligand: FMN 200 uM) was 112 nM, the “apparent KD of MS2 coat protein” value [1] was 76.3 nM and the “apparent KD of MS2 coat protein” value (input ligand: none) was 119 nM.
With “UUGAAGAAUUAAGGAUAUUGAGUACAUAUGUAAAACAUGAGGAUCACCCAUGUGGGUUGCGGUAUCGAGAAGGUAAAUUAAUAG [Mat - same State NG 2 - JL mod - D70] (Eterna round: R96, puzzle: Same State NG 2)” the “apparent KD of MS2 coat protein” value (input ligand: FMN 200 uM) was 87 nM, the “apparent KD of MS2 coat protein” value [1] was 67.6 nM and the “apparent KD of MS2 coat protein” value (input ligand: none) was 96.3 nM.
With “UUGAAGAAUUAAGGAUAUUGAUUACAUAUGUUUAACAUGAGGAUCACCCAUGUGGGUUGCGGUAUCGAGAAGGUAAAAUAAUAG [Mat - same State NG 2 - JL mod - D82] (Eterna round: R96, puzzle: Same State NG 2)” the “apparent KD of MS2 coat protein” value (input ligand: FMN 200 uM) was 181 nM, the “apparent KD of MS2 coat protein” value [1] was 231 nM and the “apparent KD of MS2 coat protein” value (input ligand: none) was 258 nM.
In the case of “UUGAUGUACUGAGGAUAUCGUGUCGUCUGUUUUUACAUGAGGAUCACCCAUGUGGGUUGUGGUAUCGAGAAGGCAGUUUUCUUA [JR_SSNG2_Sub030] (Eterna round: R96, puzzle: Same State NG 2)”, the “apparent KD of MS2 coat protein” value (input ligand: FMN 200 uM) is reported as 306 nM, the “apparent KD of MS2 coat protein” value [1] is reported as 560 nM and the “apparent KD of MS2 coat protein” value (input ligand: none) is reported as 582 nM.
